How the values were obtained:
[1] = target: T1, tetanus neurotoxin (TeNT), authentic tetanus holotoxin (Clostridium tetani, UniProt P04958 2-1315); experiment: ELISA, directly coated TeNT, unlabelled binder
[2] = target: T2, recombinant tetanus toxin fragment C (rTTC) (Clostridium tetani, UniProt P04958 865-1315); experiment: ELISA, directly coated rTTC, unlabelled binder
T2 sequence: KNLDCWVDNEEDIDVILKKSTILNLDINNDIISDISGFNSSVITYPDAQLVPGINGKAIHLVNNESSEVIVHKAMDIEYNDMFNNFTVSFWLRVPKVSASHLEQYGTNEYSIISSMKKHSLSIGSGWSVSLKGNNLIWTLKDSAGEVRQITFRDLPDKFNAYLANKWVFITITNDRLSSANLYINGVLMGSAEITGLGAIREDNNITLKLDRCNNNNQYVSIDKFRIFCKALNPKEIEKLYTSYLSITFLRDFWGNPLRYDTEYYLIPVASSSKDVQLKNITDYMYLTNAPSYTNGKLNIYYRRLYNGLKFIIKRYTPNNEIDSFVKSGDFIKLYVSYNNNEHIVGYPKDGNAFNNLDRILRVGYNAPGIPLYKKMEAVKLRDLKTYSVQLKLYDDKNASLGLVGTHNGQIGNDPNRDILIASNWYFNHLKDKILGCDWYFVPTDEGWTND

[3] = target: T1, tetanus neurotoxin (TeNT), authentic …; experiment: GT1b-TeNT inhibition ELISA, EC at A450 0.59
Target sequence in this assay (P04958 2-457 limits assumed, chain 1 of 2): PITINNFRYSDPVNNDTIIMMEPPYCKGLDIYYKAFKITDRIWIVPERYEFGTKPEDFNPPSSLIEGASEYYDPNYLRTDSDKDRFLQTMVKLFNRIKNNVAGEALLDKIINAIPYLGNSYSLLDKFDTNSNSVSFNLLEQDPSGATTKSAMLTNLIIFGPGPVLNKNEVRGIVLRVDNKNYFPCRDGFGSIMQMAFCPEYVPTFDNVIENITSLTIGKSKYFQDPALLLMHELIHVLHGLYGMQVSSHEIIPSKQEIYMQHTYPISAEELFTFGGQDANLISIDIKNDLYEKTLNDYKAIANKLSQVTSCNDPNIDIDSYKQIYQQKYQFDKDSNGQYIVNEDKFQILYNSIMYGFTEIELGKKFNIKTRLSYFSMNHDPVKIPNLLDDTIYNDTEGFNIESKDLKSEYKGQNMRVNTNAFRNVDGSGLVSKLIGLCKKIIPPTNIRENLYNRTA
Target sequence in this assay (P04958 458-1315 limits assumed, chain 2 of 2): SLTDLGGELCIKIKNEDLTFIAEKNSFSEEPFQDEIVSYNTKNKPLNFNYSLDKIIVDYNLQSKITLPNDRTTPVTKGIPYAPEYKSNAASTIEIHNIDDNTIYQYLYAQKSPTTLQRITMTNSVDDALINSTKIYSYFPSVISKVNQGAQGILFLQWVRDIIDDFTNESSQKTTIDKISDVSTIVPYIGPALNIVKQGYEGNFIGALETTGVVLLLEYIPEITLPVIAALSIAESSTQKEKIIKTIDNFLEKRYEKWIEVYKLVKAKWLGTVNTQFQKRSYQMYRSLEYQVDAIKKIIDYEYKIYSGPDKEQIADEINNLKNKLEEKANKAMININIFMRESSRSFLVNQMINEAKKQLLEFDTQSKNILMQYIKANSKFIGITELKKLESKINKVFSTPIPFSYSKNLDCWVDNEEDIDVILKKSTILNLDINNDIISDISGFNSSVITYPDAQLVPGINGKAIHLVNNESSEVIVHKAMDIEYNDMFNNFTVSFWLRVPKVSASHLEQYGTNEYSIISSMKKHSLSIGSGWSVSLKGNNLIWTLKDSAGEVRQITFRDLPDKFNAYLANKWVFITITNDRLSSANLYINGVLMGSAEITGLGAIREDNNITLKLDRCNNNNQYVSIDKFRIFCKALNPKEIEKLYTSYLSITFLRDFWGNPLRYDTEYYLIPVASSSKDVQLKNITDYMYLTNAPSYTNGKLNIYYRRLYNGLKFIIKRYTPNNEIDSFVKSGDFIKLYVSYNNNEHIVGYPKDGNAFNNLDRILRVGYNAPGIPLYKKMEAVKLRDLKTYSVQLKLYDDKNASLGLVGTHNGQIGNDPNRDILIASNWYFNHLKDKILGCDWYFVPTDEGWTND

[4] = target: T1, tetanus neurotoxin (TeNT), authentic …; experiment: competition ELISA on TeNT, binder biotinylated; competitor SVT22L
Target sequence in this assay (P04958 2-457 limits assumed, chain 1 of 2): as the sequence (P04958 2-457 limits assumed, chain 1 of 2) above
Target sequence in this assay (P04958 458-1315 limits assumed, chain 2 of 2): as the sequence (P04958 458-1315 limits assumed, chain 2 of 2) above

[5] = target: T1, tetanus neurotoxin (TeNT), authentic …; experiment: ELISA, TeNT captured with cAb-TT2, unlabelled binder
Target sequence in this assay (P04958 2-457 limits assumed, chain 1 of 2): as the sequence (P04958 2-457 limits assumed, chain 1 of 2) above
Target sequence in this assay (P04958 458-1315 limits assumed, chain 2 of 2): as the sequence (P04958 458-1315 limits assumed, chain 2 of 2) above

[6] = target: T1, tetanus neurotoxin (TeNT), authentic …; experiment: competition ELISA on TeNT, binder biotinylated; competitor mAb 6F57
Target sequence in this assay (P04958 2-457 limits assumed, chain 1 of 2): as the sequence (P04958 2-457 limits assumed, chain 1 of 2) above
Target sequence in this assay (P04958 458-1315 limits assumed, chain 2 of 2): as the sequence (P04958 458-1315 limits assumed, chain 2 of 2) above

[7] = target: T1, tetanus neurotoxin (TeNT), authentic …; experiment: competition ELISA on TeNT, binder biotinylated; competitor SVT06L
Target sequence in this assay (P04958 2-457 limits assumed, chain 1 of 2): as the sequence (P04958 2-457 limits assumed, chain 1 of 2) above
Target sequence in this assay (P04958 458-1315 limits assumed, chain 2 of 2): as the sequence (P04958 458-1315 limits assumed, chain 2 of 2) above

[8] = target: T1, tetanus neurotoxin (TeNT), authentic …; experiment: competition ELISA on TeNT, binder biotinylated; competitor SVT34L
Target sequence in this assay (P04958 2-457 limits assumed, chain 1 of 2): as the sequence (P04958 2-457 limits assumed, chain 1 of 2) above
Target sequence in this assay (P04958 458-1315 limits assumed, chain 2 of 2): as the sequence (P04958 458-1315 limits assumed, chain 2 of 2) above

[9] = target: T2, recombinant tetanus toxin fragment C …; experiment: ELISA, rTTC captured with coated mAb 6E7
[10] = target: T1, tetanus neurotoxin (TeNT), authentic …; experiment: competition ELISA on TeNT, binder biotinylated; competitor mAb 14F5
[11] = target: T1, tetanus neurotoxin (TeNT), authentic …; experiment: ELISA, directly coated TeNT
[12] = target: T1, tetanus neurotoxin (TeNT), authentic …; experiment: competition ELISA on TeNT, binder biotinylated; competitor SVT15L-3FW4M
[13] = target: T1, tetanus neurotoxin (TeNT), authentic …; experiment: competition ELISA on TeNT, binder biotinylated; competitor SVT03L
[14] = target: T1, tetanus neurotoxin (TeNT), authentic …; experiment: competition ELISA on TeNT, binder biotinylated; competitor SVT02L
[15] = target: T1, tetanus neurotoxin (TeNT), authentic …; experiment: ELISA, TeNT captured with coated mAb 6E7
[16] = target: T1, tetanus neurotoxin (TeNT), authentic …; experiment: competition ELISA on TeNT, binder biotinylated; competitor mAb 6E7
[17] = target: T1, tetanus neurotoxin (TeNT), authentic …; experiment: ELISA, TeNT captured with cAb-TT2, biotinylated binder
[18] = target: T1, tetanus neurotoxin (TeNT), authentic …; experiment: competition ELISA on TeNT, binder biotinylated; competitor SVT15L
[19] = target: T1, tetanus neurotoxin (TeNT), authentic …; experiment: competition ELISA on TeNT, binder biotinylated; competitor mAb 11n185
[20] = target: T1, tetanus neurotoxin (TeNT), authentic …; experiment: GT1b-TeNT inhibition ELISA, unlabelled binder
[21] = target: T1, tetanus neurotoxin (TeNT), authentic …; experiment: ELISA, directly coated TeNT, biotinylated binder
[22] = target: T1, tetanus neurotoxin (TeNT), authentic …; experiment: competition ELISA on TeNT, binder biotinylated; competitor SVT13L
[23] = target: T1, tetanus neurotoxin (TeNT), authentic …; experiment: competition ELISA on TeNT, binder biotinylated; competitor SVT08L
[24] = target: T1, tetanus neurotoxin (TeNT), authentic …; experiment: competition ELISA on TeNT, binder biotinylated; competitor SVT16L
[25] = target: T2, recombinant tetanus toxin fragment C …; experiment: ELISA, directly coated rTTC
swine albumin = target: T3, swine albumin (swine, UniProt P08835 25-607); experiment: ELISA on coated albumin
T3 construct: also called Porcine albumin

human albumin [26] = target: T4, human albumin (human, UniProt P02768 25-609); experiment: ELISA on coated albumin
chicken ovalbumin [27] = target: T5, chicken ovalbumin (chicken, UniProt P01012 2-386); experiment: ELISA on coated albumin
T5 construct: also called Chicken Alb
T5 sequence (looked up): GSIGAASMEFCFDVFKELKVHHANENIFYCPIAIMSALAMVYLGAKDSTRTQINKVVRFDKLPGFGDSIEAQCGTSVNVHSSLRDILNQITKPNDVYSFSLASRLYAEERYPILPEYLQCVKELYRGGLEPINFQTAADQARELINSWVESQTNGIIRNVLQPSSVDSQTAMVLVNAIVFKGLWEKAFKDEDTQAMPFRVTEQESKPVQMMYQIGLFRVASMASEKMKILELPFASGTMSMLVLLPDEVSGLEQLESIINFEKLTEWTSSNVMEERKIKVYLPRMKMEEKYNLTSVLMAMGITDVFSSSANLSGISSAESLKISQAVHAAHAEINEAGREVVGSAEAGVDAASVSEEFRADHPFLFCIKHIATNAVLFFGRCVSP

bovine albumin [28] = target: T6, bovine albumin (bovine, UniProt P02769 25-607); experiment: ELISA on coated albumin
T6 sequence (P02769 25-607 limits assumed): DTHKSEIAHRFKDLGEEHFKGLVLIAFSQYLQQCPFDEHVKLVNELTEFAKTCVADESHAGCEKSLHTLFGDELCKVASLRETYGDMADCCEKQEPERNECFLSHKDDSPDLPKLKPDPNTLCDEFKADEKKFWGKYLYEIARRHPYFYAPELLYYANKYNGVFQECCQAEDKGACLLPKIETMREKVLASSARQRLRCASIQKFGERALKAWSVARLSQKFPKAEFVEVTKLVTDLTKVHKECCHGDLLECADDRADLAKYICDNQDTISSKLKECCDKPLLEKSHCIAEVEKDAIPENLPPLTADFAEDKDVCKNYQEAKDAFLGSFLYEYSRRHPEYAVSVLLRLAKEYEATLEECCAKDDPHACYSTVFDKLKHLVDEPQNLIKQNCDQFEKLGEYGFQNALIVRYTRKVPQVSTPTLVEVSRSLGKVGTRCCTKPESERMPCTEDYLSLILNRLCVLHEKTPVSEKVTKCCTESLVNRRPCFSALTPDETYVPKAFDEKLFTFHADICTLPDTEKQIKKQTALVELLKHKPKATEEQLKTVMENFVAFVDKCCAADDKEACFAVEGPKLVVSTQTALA

sheep albumin [29] = target: T7, sheep albumin (sheep, UniProt P14639 25-607); experiment: ELISA on coated albumin
T7 sequence (P14639 25-607 limits assumed): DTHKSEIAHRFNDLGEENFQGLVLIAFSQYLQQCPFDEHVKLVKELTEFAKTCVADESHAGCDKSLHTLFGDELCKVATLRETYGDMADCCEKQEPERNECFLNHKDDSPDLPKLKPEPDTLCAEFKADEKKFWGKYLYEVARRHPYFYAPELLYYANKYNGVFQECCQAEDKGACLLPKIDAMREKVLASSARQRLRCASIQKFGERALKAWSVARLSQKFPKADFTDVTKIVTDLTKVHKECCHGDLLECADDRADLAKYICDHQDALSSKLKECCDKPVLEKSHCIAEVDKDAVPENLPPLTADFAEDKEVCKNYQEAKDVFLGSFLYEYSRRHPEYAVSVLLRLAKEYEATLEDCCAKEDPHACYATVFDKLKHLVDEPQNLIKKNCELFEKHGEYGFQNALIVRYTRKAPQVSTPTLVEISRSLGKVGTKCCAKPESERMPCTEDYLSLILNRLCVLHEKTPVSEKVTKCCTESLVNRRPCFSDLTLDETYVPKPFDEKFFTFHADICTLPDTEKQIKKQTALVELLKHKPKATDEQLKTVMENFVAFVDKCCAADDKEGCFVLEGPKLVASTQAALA

horse albumin = target: T8, horse albumin (horse, UniProt P35747 25-607); experiment: ELISA on coated albumin
T8 construct: also called Equine albumin
T8 sequence (P35747 25-607 limits assumed): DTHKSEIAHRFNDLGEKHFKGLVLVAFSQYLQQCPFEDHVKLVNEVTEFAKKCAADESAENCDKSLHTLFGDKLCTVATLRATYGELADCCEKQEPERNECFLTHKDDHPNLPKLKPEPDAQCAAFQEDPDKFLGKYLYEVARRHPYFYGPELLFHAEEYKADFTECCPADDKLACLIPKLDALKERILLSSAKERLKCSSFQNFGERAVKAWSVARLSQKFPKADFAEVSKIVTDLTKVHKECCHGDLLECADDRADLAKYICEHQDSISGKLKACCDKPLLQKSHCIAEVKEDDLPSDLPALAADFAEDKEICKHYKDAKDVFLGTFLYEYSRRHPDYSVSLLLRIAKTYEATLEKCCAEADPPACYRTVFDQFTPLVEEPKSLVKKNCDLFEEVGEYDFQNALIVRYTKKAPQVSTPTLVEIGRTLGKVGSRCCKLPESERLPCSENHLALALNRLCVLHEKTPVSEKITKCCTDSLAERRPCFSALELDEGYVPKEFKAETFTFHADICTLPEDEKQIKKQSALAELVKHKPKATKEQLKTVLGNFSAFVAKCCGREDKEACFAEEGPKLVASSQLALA

dog albumin = target: T9, dog albumin (dog, UniProt P49822 25-608); experiment: ELISA on coated albumin
T9 construct: also called Canine albumin
T9 sequence (P49822 25-608 limits assumed): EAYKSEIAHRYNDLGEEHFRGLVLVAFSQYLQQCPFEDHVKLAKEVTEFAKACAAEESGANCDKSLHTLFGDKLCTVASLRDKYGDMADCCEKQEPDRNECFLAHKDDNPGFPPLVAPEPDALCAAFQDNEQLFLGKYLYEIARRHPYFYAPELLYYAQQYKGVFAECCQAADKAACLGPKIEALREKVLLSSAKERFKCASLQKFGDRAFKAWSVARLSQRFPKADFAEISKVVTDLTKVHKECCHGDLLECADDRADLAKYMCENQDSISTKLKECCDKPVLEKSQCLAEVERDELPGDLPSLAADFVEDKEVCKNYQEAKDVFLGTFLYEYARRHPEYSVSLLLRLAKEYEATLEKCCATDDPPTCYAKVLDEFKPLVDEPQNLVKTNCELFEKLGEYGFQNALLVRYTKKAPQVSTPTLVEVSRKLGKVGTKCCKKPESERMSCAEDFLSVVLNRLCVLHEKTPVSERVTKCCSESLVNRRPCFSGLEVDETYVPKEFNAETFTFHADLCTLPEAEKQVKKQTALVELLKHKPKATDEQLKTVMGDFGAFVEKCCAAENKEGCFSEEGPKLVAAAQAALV

mouse albumin = mouse albumin (mouse, UniProt P07724 25-608); experiment: ELISA on coated albumin
mouse albumin, sequence (P07724 25-608 limits assumed): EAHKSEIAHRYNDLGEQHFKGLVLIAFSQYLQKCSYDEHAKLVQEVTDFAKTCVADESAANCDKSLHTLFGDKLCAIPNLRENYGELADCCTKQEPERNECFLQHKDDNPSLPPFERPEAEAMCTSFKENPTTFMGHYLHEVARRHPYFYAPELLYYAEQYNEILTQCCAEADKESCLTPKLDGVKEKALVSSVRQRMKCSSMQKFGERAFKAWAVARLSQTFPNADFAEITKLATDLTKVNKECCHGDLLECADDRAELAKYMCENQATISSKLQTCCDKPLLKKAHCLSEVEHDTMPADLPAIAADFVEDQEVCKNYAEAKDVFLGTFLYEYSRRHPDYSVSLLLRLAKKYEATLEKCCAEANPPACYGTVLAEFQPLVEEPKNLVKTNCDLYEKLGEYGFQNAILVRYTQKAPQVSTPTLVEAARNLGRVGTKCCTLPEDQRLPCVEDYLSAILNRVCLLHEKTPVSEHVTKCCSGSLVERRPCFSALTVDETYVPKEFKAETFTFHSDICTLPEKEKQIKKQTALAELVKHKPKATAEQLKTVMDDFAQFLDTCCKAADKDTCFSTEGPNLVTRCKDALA

cat albumin = target: T10, cat albumin (cat, UniProt P49064 25-608); experiment: ELISA on cat albumin captured from serum
T10 construct: also called Feline albumin

human albumin [30] = target: T4, human albumin; experiment: ELISA; A450 below 0.2 at highest SDA concentration
chicken ovalbumin [31] = target: T5, chicken ovalbumin; experiment: ELISA; A450 below 0.2 at highest SDA concentration
bovine albumin [32] = target: T6, bovine albumin; experiment: ELISA; A450 below 0.2 at highest SDA concentration
sheep albumin [33] = target: T7, sheep albumin; experiment: ELISA; A450 below 0.2 at highest SDA concentration

B1: SVT02L (VHH)
VHH: QVQLQQSGGGSVQAGGSLRLSCVGPQRTFSTYGMGWFRQAPGKEREFVAGINYKGDTTYYADSVKGRFTISRDNAKNTLYLQMDSLKPEDRAVYQCARKGGLGGDYRDAGQYRYWGQGTQVTVSS
EC resulting in A450 0.2 [1]: > 1000 ng/mL | maximal absorbance at 450 nm [1]: 0.077 | maximal absorbance at 450 nm [2]: 0.057 | concentration giving A450 of 0.59 [3]: > 1 µg/mL | % inhibition of binding [4]: 3% | EC resulting in A450 0.15 [5]: 36 ng/mL | maximal absorbance at 450 nm [5]: 0.196 | % inhibition of binding [6]: 19% | % inhibition of binding [7]: 2% | % inhibition of binding [8]: -16% | absorbance at 450 nm [9]: 0.062 | % inhibition of binding [10]: 97% | absorbance at 450 nm [11]: 0.062 | % inhibition of binding [12]: 12% | % inhibition of binding [13]: 9% | % inhibition of binding [14]: 96% | absorbance at 450 nm [15]: 1.19 | % inhibition of binding [16]: 8% | EC resulting in A450 0.2 [17]: 11 ng/mL | maximal absorbance at 450 nm [17]: 0.53 | % inhibition of binding [18]: 6% | % inhibition of binding [19]: 19% | minimal absorbance at 450 nm [20]: 0.576 | EC resulting in A450 0.4 [21]: > 1000 ng/mL | maximal absorbance at 450 nm [21]: 0.191 | % inhibition of binding [22]: 21% | % inhibition of binding [23]: 16% | % inhibition of binding [24]: 26% | binding result [25]: no binding (tested: A450 above 0.2 counts as binding)

B2: SVT03L (VHH)
VHH: QVQLQQSGGGSVQTGDSLTLSCTASGGSLNSYFVGWFRQSGGKEREFVSVIARTGRSTSYADSVKGRFTISRDNAANTVFLTMNNLRPDDTAIYYCAAVGRPGVLHLTQSYDYWGQGTQVTVSS
EC resulting in A450 0.2 [1]: > 1000 ng/mL | maximal absorbance at 450 nm [1]: 0.104 | maximal absorbance at 450 nm [2]: 0.053 | concentration giving A450 of 0.59 [3]: > 1 µg/mL | % inhibition of binding [4]: 10% | EC resulting in A450 0.15 [5]: 1.9 ng/mL | maximal absorbance at 450 nm [5]: 0.304 | % inhibition of binding [6]: 17% | % inhibition of binding [7]: 10% | % inhibition of binding [8]: -4% | absorbance at 450 nm [9]: 0.061 | % inhibition of binding [10]: -8% | absorbance at 450 nm [11]: 0.331 | % inhibition of binding [12]: 10% | % inhibition of binding [13]: 97% | % inhibition of binding [14]: 10% | absorbance at 450 nm [15]: 1.32 | % inhibition of binding [16]: -12% | EC resulting in A450 0.2 [17]: 2.8 ng/mL | maximal absorbance at 450 nm [17]: 0.493 | % inhibition of binding [18]: 12% | % inhibition of binding [19]: -26% | minimal absorbance at 450 nm [20]: 0.903 | EC resulting in A450 0.4 [21]: > 1000 ng/mL | maximal absorbance at 450 nm [21]: 0.233 | % inhibition of binding [22]: 23% | % inhibition of binding [23]: 10% | % inhibition of binding [24]: 18% | binding result [25]: no binding (tested: A450 above 0.2 counts as binding)

B3: SVA06L (VHH)
VHH: QVQLQESGGRLVQAEDSLRLSCAASGRTFVSYDMGWFRQAPGKEREFVAAINWRGYTTDYVDSVKGRFFISRDIAKSTVYLQMNNLKPEDTAVYYCAARQMSGSSRYSPPGRVGYDFWGQGTQVTVSS
SDA Effective Concentration resulting in A450 nm = 0.2 (swine albumin): 344 ng/mL | maximal absorbance value at 450 nm (swine albumin): 0.288 A450 | maximal absorbance value at 450 nm (human albumin [26]): 0.05 A450 | maximal absorbance value at 450 nm (chicken ovalbumin [27]): 0.054 A450 | maximal absorbance value at 450 nm (bovine albumin [28]): 0.052 A450 | maximal absorbance value at 450 nm (sheep albumin [29]): 0.052 A450 | SDA Effective Concentration resulting in A450 nm = 0.2 (horse albumin): 235 ng/mL | maximal absorbance value at 450 nm (horse albumin): 0.483 A450 | SDA Effective Concentration resulting in A450 nm = 0.2 (dog albumin): 51 ng/mL | maximal absorbance value at 450 nm (dog albumin): 0.921 A450 | SDA Effective Concentration resulting in A450 nm = 0.2 (mouse albumin): 180 ng/mL | maximal absorbance value at 450 nm (mouse albumin): 0.36 A450 | maximal absorbance value at 450 nm (cat albumin): 0.158 A450 | binding result (human albumin [30]): no binding (tested: 1000 ng/ml) | binding result (chicken ovalbumin [31]): no binding (tested: 1000 ng/ml) | binding result (bovine albumin [32]): no binding (tested: 1000 ng/ml) | binding result (sheep albumin [33]): no binding (tested: 1000 ng/ml)
